Assay results: patent US20240391954A1, “MC4R AGONIST PEPTIDES” (The Regents of the University of Michigan, priority 2021, published 2024)
Positions of bridges follow the written chain, without caps; N, C: chain ends. Non-standard residues stand in square brackets, D forms with d. Phe(4-Br) = N[C@@H](Cc1ccc(Br)cc1)C(=O)O; dPhe(4-Br) = N[C@H](Cc1ccc(Br)cc1)C(=O)O

What was measured:
Assay in all cases: cell-based or functional assay
human MC4R receptor [1] = target: T1, human MC4R receptor (human, UniProt P32245 1-332)
human MC4R receptor [2] = target: T1, human MC4R receptor; remark: listed apart in the source
human MC3R = human MC3R (human, UniProt P41968 1-323)
human MC3R, sequence (P41968 whole entry): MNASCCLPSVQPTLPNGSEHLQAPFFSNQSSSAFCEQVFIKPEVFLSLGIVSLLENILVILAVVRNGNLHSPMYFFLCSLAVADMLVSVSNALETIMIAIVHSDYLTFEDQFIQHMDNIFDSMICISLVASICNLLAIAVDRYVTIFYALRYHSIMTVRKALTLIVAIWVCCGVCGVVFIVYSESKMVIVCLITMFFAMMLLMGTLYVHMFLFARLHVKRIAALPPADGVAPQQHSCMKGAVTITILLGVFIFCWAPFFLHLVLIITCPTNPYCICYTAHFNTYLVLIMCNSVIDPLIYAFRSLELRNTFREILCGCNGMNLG

T1 sequence (P32245 whole entry): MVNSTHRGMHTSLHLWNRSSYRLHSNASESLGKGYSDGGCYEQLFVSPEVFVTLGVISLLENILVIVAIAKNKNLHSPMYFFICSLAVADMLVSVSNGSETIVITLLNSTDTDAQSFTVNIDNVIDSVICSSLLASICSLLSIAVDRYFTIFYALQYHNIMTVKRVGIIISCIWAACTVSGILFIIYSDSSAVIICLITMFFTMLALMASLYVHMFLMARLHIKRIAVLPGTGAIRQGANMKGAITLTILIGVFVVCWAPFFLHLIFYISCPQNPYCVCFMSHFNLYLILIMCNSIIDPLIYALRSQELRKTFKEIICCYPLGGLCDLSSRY

Binder | MC4R selectivity vs MC1R (human MC4R receptor [1]) | MC4R selectivity vs MC3R (human MC4R receptor [1]) | % max activation (human MC4R receptor [2]) [%] | cAMP EC50 (human MC4R receptor [2]) [nM] | % max activation (human MC3R) [%] | cAMP EC50 (human MC3R) [nM]
Ac-RC[dA]R[dPhe(4-Br)]R[dW]CKP-NH2 (disulfide 2-8; SMILES CC(=O)N[C@@H](CCCNC(=N)N)C(=O)N[C@H]1CSSC[C@@H](C(=O)N[C@@H](CCCCN)C(=O)N2CCC[C@H]2C(N)=O)NC(=O)[C@@H](Cc2c[nH]c3ccccc23)NC(=O)[C@H](CCCNC(=N)N)NC(=O)[C@@H](Cc2ccc(Br)cc2)NC(=O)[C@H](CCCNC(=N)N)NC(=O)[C@@H](C)NC1=O) [CTX-1217] | 1.12 | 2.73 | 69 | 1.5 | 13 | 4
Ac-RC[dA]R[dPhe(4-Br)]R[dW]CK-NH2 (disulfide 2-8; SMILES CC(=O)N[C@@H](CCCNC(=N)N)C(=O)N[C@H]1CSSC[C@@H](C(=O)N[C@@H](CCCCN)C(N)=O)NC(=O)[C@@H](Cc2c[nH]c3ccccc23)NC(=O)[C@H](CCCNC(=N)N)NC(=O)[C@@H](Cc2ccc(Br)cc2)NC(=O)[C@H](CCCNC(=N)N)NC(=O)[C@@H](C)NC1=O) [CTX-1218] | 1 | 1.85 | 77 | – | 16 | –
Ac-RC[dA]R[Phe(4-Br)]R[dW]C-NH2 (disulfide 2-8) [CTX-1215] | 0.07 | 0.05 | 56 | 592 | 2.1 | 27

Continued, values first:

MC4R selectivity vs MC1R (human MC4R receptor [1]) | MC4R selectivity vs MC3R (human MC4R receptor [1]) | % max activation (human MC4R receptor [2]) [%] | cAMP EC50 (human MC4R receptor [2]) [nM] | % max activation (human MC3R) [%] | cAMP EC50 (human MC3R) [nM] | Binder
1.53 | 3.82 | 76 | 1.87 | 21 | 7.2 | Ac-RC[dA]R[dPhe(4-Br)]R[dW]CRF-NH2 (disulfide 2-8; SMILES CC(=O)N[C@@H](CCCNC(=N)N)C(=O)N[C@H]1CSSC[C@@H](C(=O)N[C@@H](CCCNC(=N)N)C(=O)N[C@@H](Cc2ccccc2)C(N)=O)NC(=O)[C@@H](Cc2c[nH]c3ccccc23)NC(=O)[C@H](CCCNC(=N)N)NC(=O)[C@@H](Cc2ccc(Br)cc2)NC(=O)[C@H](CCCNC(=N)N)NC(=O)[C@@H](C)NC1=O) [CTX-1220]
1 | 1.99 | 76 | 2.3 | 20 | 4.5 | Ac-RC[dA]R[dPhe(4-Br)]R[dW]CRFG-OH (disulfide 2-8; SMILES CC(=O)N[C@@H](CCCNC(=N)N)C(=O)N[C@H]1CSSC[C@@H](C(=O)N[C@@H](CCCNC(=N)N)C(=O)N[C@@H](Cc2ccccc2)C(=O)NCC(=O)O)NC(=O)[C@@H](Cc2c[nH]c3ccccc23)NC(=O)[C@H](CCCNC(=N)N)NC(=O)[C@@H](Cc2ccc(Br)cc2)NC(=O)[C@H](CCCNC(=N)N)NC(=O)[C@@H](C)NC1=O) [CTX-1219]
0.1 | 0.33 | 79 | 30 | 38 | 9.8 | Ac-RC[dA]R[dPhe(4-Br)]R[dW]CR[dF]-NH2 (disulfide 2-8; SMILES CC(=O)N[C@@H](CCCNC(=N)N)C(=O)N[C@H]1CSSC[C@@H](C(=O)N[C@@H](CCCNC(=N)N)C(=O)N[C@H](Cc2ccccc2)C(N)=O)NC(=O)[C@@H](Cc2c[nH]c3ccccc23)NC(=O)[C@H](CCCNC(=N)N)NC(=O)[C@@H](Cc2ccc(Br)cc2)NC(=O)[C@H](CCCNC(=N)N)NC(=O)[C@@H](C)NC1=O) [CTX-1222]
